Assay results published in the nanobody polyreactivity screen of Harvey et al. (2022).

Experiment: yeast display, Sf9 membrane polyspecificity reagent, FACS + sequencing; frameworks hold sequencing errors
Outline: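 A nanobody's polyreactivity label depends on the gate it was sorted from. Yeast display cells were stained with 10% biotinylated, detergent-solubilized Sf9 membrane reagent for 1 hour at 4 °C, enriched on streptavidin microbeads and sorted by FACS. The low and high (top ~1%) gates were set on anti-HA fluorescence for expression and streptavidin fluorescence for reagent binding.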

| Sequence | polyreactivity (PSR sort gate) |
| --- | --- |
| QVQLVESGGGLVQAGGSLRLSCAASGSIFGANAMGWYRQAPGKERELVAAISTRGGRTYYADSVKGRFTISRDNAKNTVYLQMNSLKPEDTAVYYCATSGGRPYKYEYWGQGTQVTVSS | high polyreactivity |
| QVQLVESGGGLVQAGGSLRLSCAASGSIFGAYAMGWYRQAPGKERELVAAISGSGTSTYYADSVKGRFTISRDNAKNTVYLQMNSLKPEDTAVYYCAADGTYFYLYLGDRFDYWGQGTQVTVSS | low polyreactivity |
| QVQLVESGGGLVQAGGSLRLSCAASGSIFGAYAMGWYRQAPGKERELVASITGNGGSTYYADSVKGRFTISRDNAKNTVYLQMNSLKPEDTAVYDCAADDYSTRYRWFYYGSPYYYWGQGTQVTVSS | high polyreactivity |
| QVQLVESGGGLVQAGGSLRLSCAASGSIFGAYAMGWYRQAPGKERELVATITLRDGSTYYADSVKGRFTISRDNAKNTVYLQMNSLKPEDTAVYYCATYYSAINYGWSNTILYDYWGQGTQVTVSS | low polyreactivity |
| QVQLVESGGGLVQAGGSLRLSCAASGSIFGAYAMGWYRQAPGKETELVASITGNGGSTYYADSVKGRFTISRDNAKNTVYLQMNSLKPEDTAVYYCAADDYSTRYRWFYYGSPYYYWGQGTQVTVSS | high polyreactivity |
| QVQLVESGGGLVQAGGSLRLSCAASGSIFGAYAMGWYRQAPGKEWELVAAISWRDGSTYYADSVKGRFTISRDNAKNTVYLQMNCLKPEDTAVYYCAAEYVYIFYDSYYWGQGTQVTVSS | high polyreactivity |
| QVQLVESGGGLVQAGGSLRLSCAASGSIFGDNAMGWYRQAPGKERELVAAISIVGSTSYADSVKGRFTISRDNAKNTVYLPMNSLKPEDTAVYYCAAETVRSDTGFDYWGQGTQVTVSS | low polyreactivity |
| QVQLVESGGGLVQAGGSLRLSCAASGSIFGDNAMGWYRQAPGKERELVARISSGGNTYYADSVKGRFTISRDNAKNTVYLQMNSLKPEDTAVYYCAAAIKVSYKKFPYYYWGQGTQVTVSS | high polyreactivity |
| QVQLVESGGGLVQAGGSLRLSCAASGSIFGDNAMGWYRQAPGKERELVASITWSGGSTFYADSVKGRFTISRDNAKNTVYLQMNSLKPEDTAVYYCNADYAESPYFYLLLDYWGQGTQVTVSS | low polyreactivity |
| QVQLVESGGGLVQAGGSLRLSCAASGSIFGDNTMGWYRQAPGKERELVAAISWRGGSTYYADSVKGRFTISRDNAKNTVYLQMNSLKPEDTAVYYCIGGPGGYDYWGQGTQVTVSS | low polyreactivity |
| QVQLVESGGGLVQAGGSLRLSCAASGSIFGDNTRGWYRQAPGKERELVAAISWRGGSTYYADSVKGRFTISRDNSKNTVYLQMNSLKPEDTAVYYCIGGPGGYDYWGQGTQVTVSS | low polyreactivity |
| QVQLVESGGGLVQAGGSLRLSCAASGSIFGDYAMGWYRQAPGKERELVAAITWSGGSTTYADSVKGRFTISRDNAKNTVYLQMNSLKPEDTAVYCCAVYGWRFYSYDDYFDFNYWGQGTQVTVSS | low polyreactivity |
| QVQLVESGGGLVQAGGSLRLSCAASGSIFGDYARGWYRQAPGKERELVAAISRSGGSTSYADSVKGRFTISRDNAKNTVYLQMNSLKPEDSAVYYCAAYWQRFGYDYWGQGTQVSVSS | low polyreactivity |
| QVQLVESGGGLVQAGGSLRLSCAASGSIFGENAMGGYRQAPGKERELVAAITSGGSTDYADSVKGRFTISRDNAKNTVYLQMNSLKPEDTAVYYCAASGRVGPGYWYDSWGQGTQVTVSS | low polyreactivity |
| QVQLVESGGGLVQAGGSLRLSCAASGSIFGFNAMGWYRQAPGKEREFVAVISNRGGSTYYADSVKGRFTISRDNAKNTVYLQMNSLKPEDTAVYYCAARPYRDSGYWGQGTQVTVSS | high polyreactivity |
| QVQLVESGGGLVQAGGSLRLSCAASGSIFGFNAMGWYRQAPGKERELVAAITNSGVRTYYADSVKGRFTISRDNAKNTVYLQMNSLKPEDTAVYYCAAEPDTYWYTYDYWGQGTQVTVSS | low polyreactivity |
| QVQLVESGGGLVQAGGSLRLSCAASGSIFGFYAMGWYRQAPGKEREFVASISDSSGSTYYADSVKGRFTISRDNAKNTVYLQMNSLKPEDTAVYYCNARVNYRWPYSWRYYWGQGTQVTVSS | high polyreactivity |
| QVQLVESGGGLVQAGGSLRLSCAASGSIFGFYAMGWYRQAPGKERELVASINWSGGSTYYADSVKGRFTISRDNAKNTVYLQMNSLKPEDTAVYYCNADQYHWYDYWGQGTQVTVSS | low polyreactivity |
| QVQLVESGGGLVQAGGSLRLSCAASGSIFGGDGMGWYRQAPGKERQLVAAITSGSSTYYADSVKGRFTISRDNAKNTVYLQLNILKPEDTAVYYCAARPYPHSAYEGDYWGRGTQVTVSS | low polyreactivity |
| QVQLVESGGGLVQAGGSLRLSCAASGSIFGGYAMGWSRQAPGNERELVASISISGGSTYYADSVKGRFTISRDNAKNTVYLQMNRLKPEDTAGYYCATDRTTTLNSPYGDPDRDDYWGQGTQVTVSS | low polyreactivity |
| QVQLVESGGGLVQAGGSLRLSCAASGSIFGGYAMGWYRQAPGKERELVAAISSGGSTYYADSVKGRFTISRDNAKNTVYLQMNSLKPEDTAVYYCNADRGNWWDYGRAYGYDYWGQGTQVTVSS | low polyreactivity |
| QVQLVESGGGLVQAGGSLRLSCAASGSIFGGYGMGSYRQAPGKERELVAAITSGSSTYYADSVKGRFTISRDNAKNTVYLQMNSLKPEDTAVYYCAARPYPHSAYEGDYWGRGTQVTVSS | low polyreactivity |

| Sequence | polyreactivity (PSR sort gate) |
| --- | --- |
| QVQLVESGGGLVQAGGSLRLSCAASGSIFGGYGMGWYRQAPGKERELVAVITKRGGSTYYADSVKGRFTISRDNAKNTVYLQMNSLKPEDTAVYYCNADYRRYPEFDYWGQGTQVTVSS | high polyreactivity |
| QVQLVESGGGLVQAGGSLRLSCAASGSIFGGYTMGWYRQAPGKERELVAAISARGGNTYYADSVKGRFTISRDNAKNTVYLQMNSLKPEDTSVYYCAKVRYTQSYRGYGFWGQGTQVTVSS | high polyreactivity |
| QVQLVESGGGLVQAGGSLRLSCAASGSIFGGYVMGWSRQAPGKEWELVAAITSGGSTYYADSVKGRFTISRDNAKNTVYLQMNSLKPEDTAVYYCNADPYTYSYGMYYWGQGTQVTVSS | low polyreactivity |
| QVQLVESGGGLVQAGGSLRLSCAASGSIFGGYVMGWYRQAPGKERELVAAITSGGSTYYADSVKGRFTISRDNAKNTVYLQMNSLKPEDTAVYYCNADPYTYSYGMYYWGHGTQVTVSS | low polyreactivity |
| QVQLVESGGGLVQAGGSLRLSCAASGSIFGINAMGWYRQAPGKERELVAAISGSTSRTYYADSVKGRFTISRDTAKNTVYLQMNSLKPEDTAVYYCARVKGVYHFSILDYWGQGTQVTVSS | high polyreactivity |
| QVQLVESGGGLVQAGGSLRLSCAASGSIFGIYAMGWYRQAPGKERELVAAIRVSDGRTYYADSVKGRFTISRDNAKNTVYLQMNSLKPEDTAVYYCAAESQSSYGPYDYWGQGTQVTVSS | low polyreactivity |
| QVQLVESGGGLVQAGGSLRLSCAASGSIFGKYAMGWYRQAPGKERELVAAISDSGSITYYADSVKGRFTISRDNAKNTVYLQMNSLKPEDTAVYYCAAERYLLWGFEENYWGQGTQVTVSS | high polyreactivity |
| QVQLVESGGGLVQAGGSLRLSCAASGSIFGKYAMGWYRQAPGKERELVAAISKRGGSTYYADSVKGRFTISRDNAKNTVYLQMNSLKPEDTAVYYCAATPVYSGPYDYWGQGTQVTVSS | high polyreactivity |
| QVQLVESGGGLVQAGGSLRLSCAASGSIFGKYAMGWYRQAPGKERELVAAISRSGSRTFYADSVKGRFTISRDNAKNTVYLQMNSLKPEDTAVYYCNALSGDSYSYYGYDSWGQGTQVTVSS | high polyreactivity |
| QVQLVESGGGLVQAGGSLRLSCAASGSIFGLYAMGWYRQAPGKERDLVAVITYYVGTTYYADSVKGRFTISRDTAKNTVYLQMHSLKPEDTAVYYCAADLYWYYPWSAYYGEYDYWGQGTQVTVSS | low polyreactivity |
| QVQLVESGGGLVQAGGSLRLSCAASGSIFGLYAMGWYRQAPGKERELVAAISTSSGRTYYADSVKGRFTISRDNAKNTVYLQMNSLKPEDTAVYYCAASGAWWSLHYAGDYWGQGTQVTVSS | high polyreactivity |
| QVQLVESGGGLVQAGGSLRLSCAASGSIFGLYAMGWYRQAPGKERELVATISKSGVSTYYADSVKGRFTISRDNAKNTVYLQMNSLKPEDTAVYYCNADISRDKDFDYWGQGTQVTVSW | low polyreactivity |
| QVQLVESGGGLVQAGGSLRLSCAASGSIFGNYAMGWYRQAPGKERELVAAITSSGGTYYADSVKGRFTISRDNAKNTVYLQMNSLKPEDTAVYYCAARYYSYRHQSVKYGYWGQGTQVTVSS | high polyreactivity |
| QVQLVESGGGLVQAGGSLRLSCAASGSIFGPYAMGWYRQAPGKERELVAAITWTGGRTYYADSVKGRFTISRDNAKNTVYLQMNSLKPEDNAVYYCAADYSPSTWYLYYTLYYYWGQGTQVTVSS | low polyreactivity |
| QVQLVESGGGLVQAGGSLRLSCAASGSIFGPYAMGWYRQAPGKERYADSVKGRFTISRDNAKNTVYLQMNSLKPEDTAVYYCNADTSRWRYSQPIYDYWGQGTQVTVSS | low polyreactivity |
| QVQLVESGGGLVQAGGSLRLSCAASGSIFGQNAMGWYRQAPGKERELVAAITSGAGITYYADSVKGRFTISRDNAKNTVYLQMNSLKPEDPAVYYCNAVPSWSPSPLFDYWGQGTQVTVSS | low polyreactivity |
| QVQLVESGGGLVQAGGSLRLSCAASGSIFGQYAMGWYRQAPGKERELVAAISTRGGSTRYADSVKGRFTISRDNAKNTVYLQMNSLKPEDTAVYYCAARVPYIRHLAVDYWGQGTQVTVSS | high polyreactivity |
| QVQLVESGGGLVQAGGSLRLSCAASGSIFGRNAMGWYREAPGKERVLVAAINSGGSTNYADSVKGRFTISRDNAKNTVYLQMNSLKPEDTAVYYCAARTYSSGRYYGYVAFYYWGQGTQVTVSS | high polyreactivity |
| QVQLVESGGGLVQAGGSLRLSCAASGSIFGRNAMGWYRQAPGKERELGAAMTGSGTSTYADSVKGRFTISRDNAKNTVYLQMNSLKPEDTAVYYCAAGVTTVEYEYCGQGTQVTVSS | low polyreactivity |
| QVQLVESGGGLVQAGGSLRLSCAASGSIFGRNAMGWYRQAPGKERELVAAISFIGGSTYYADSVKGRFTISRDNAKNTVYLQMNSLKPEDTAVYYCATSVFYYGSLYGYWGQGTQVTVSS | high polyreactivity |
| QVQLVESGGGLVQAGGSLRLSCAASGSIFGRNAMGWYRQAPGKERELVARISSRGGSTYYADSVKGRFTISRDNAKNTVYLQMNSLKPEDTAVYYCNRDRTWQTNDYWGQGTQVTVSS | high polyreactivity |
